Values of other authors, collected in US9453050B2, “Compositions for treating glioma” (GLIA SP Z.O.O., priority 2011, dated 2016).

What was measured:
[1] = target: T1, high affinity receptor (GM-CSFRα.βc complex) (Homo sapiens, UniProt P15509+P32927); settings: VonFeldt et al.; cited from earlier work
T1 sequence (P15509 23-400): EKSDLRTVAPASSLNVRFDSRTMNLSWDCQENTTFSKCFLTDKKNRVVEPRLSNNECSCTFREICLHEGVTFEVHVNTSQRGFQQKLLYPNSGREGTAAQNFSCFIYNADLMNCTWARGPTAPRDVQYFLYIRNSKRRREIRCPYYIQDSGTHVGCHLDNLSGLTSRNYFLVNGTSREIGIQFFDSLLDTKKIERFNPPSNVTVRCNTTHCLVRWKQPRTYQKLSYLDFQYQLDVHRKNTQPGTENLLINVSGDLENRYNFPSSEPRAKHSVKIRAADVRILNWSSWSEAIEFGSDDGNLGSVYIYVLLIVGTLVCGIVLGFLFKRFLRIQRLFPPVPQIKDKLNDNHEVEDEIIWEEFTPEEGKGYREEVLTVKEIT
T1 sequence (P32927 17-897): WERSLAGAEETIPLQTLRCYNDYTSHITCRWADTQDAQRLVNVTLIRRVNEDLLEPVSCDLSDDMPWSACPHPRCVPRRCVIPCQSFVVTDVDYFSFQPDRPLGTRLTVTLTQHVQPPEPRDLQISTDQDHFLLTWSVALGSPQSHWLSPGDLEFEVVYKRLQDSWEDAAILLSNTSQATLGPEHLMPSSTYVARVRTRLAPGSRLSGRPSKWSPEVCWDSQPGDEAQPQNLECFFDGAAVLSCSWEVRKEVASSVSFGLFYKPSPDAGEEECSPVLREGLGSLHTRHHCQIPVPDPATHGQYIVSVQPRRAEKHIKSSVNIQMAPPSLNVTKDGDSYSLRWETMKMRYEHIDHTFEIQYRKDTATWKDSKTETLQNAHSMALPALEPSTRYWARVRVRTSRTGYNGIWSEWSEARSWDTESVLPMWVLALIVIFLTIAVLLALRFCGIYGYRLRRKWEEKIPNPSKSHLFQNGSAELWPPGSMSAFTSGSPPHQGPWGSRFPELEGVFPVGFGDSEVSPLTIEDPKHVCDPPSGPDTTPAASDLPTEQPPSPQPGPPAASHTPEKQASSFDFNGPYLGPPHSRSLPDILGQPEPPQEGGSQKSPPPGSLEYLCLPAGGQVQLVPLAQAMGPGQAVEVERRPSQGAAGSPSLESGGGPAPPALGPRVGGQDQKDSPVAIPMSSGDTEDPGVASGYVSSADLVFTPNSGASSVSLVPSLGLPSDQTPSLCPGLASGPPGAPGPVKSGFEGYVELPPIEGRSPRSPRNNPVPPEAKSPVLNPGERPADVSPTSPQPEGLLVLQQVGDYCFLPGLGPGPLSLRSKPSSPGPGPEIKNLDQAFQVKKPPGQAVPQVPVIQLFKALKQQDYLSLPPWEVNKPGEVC

[2] = target: T2, low affinity receptor (GM-CSFRα alone) (Homo sapiens, UniProt P15509); settings: VonFeldt et al.; cited from earlier work
T2 sequence (P15509 23-400): T1 sequence (P15509 23-400)

amino acids 17-31 (the A helix) of GM-CSF: linear peptide analog of GM-CSF, VonFeldt et al. (NAIQEARRLLNLSRD; UniProt P04141 34-48, looked up, fragment)
high affinity receptor binding [1]: inhibits

peptide consisting of amino acids 54-78 (B and C helices): linear peptide analog of GM-CSF, VonFeldt et al. (CLQTRLELYKQGLRGSLTKLKGPLT; UniProt P04141 71-95, looked up, fragment)
low affinity receptor binding [2]: inhibits
